Article PMC11355449, “The Discovery and Characterization of a Potent DPP-IV Inhibitory Peptide from Oysters for the Treatment of Type 2 Diabetes Based on Computational and Experimental Studies” (Marine Drugs, 2024)
Read-outs that look alike come from different tables or passages of the source. No end group written: not given here.

How the values were obtained:
DPP-IV [1] = target: T1, DPP-IV (Homo sapiens, UniProt P27487); settings: read-out: IC50, DPP-IV inhibition, cited from earlier work
T1 construct: purchased Cayman Chemical 700210

DPP-IV [2] = target: T1, DPP-IV; assay: DPP-IV inhibitory activity in vitro (Cayman DPP (IV) inhibitor screening assay kit); type: biochemical; settings: substrate Gly-Pro-AMC, 37 °C, 30 min, fluorescence 355/460 nm; dose–response range from 0.52 to 3.65 μM; drc package in R; read-out: IC50, DPP-IV inhibition
Description: Based on the results of the virtual screening, the optimal oyster peptide (key peptide sequences with potent DPP-IV inhibition) was selected and synthesized by Wuxi Maimertop Biotechnology Co., Ltd. (Wuxi, China). Then, the synthesized peptide was subjected to the DPP-IV inhibition activity verification. The DPP-IV inhibitory activity was determined following the instructions of commercial kits: a DPP (IV) inhibitor screening assay kit (700210 Cayman chemicals, USA). Briefly, 30 µL of assay buffer, 10 µL of DPP-IV enzyme, and 10 µL of peptide solution were added to a 96-well plate. Then, 50 µL of substrate (Gly-Pro-AMC, Sigma-Aldrich, Saint Louis, MO, USA) was added to start the reaction. After incubation at 37 °C for 30 min, the absorbance of the reaction mixture was detected under excitation and emission wavelengths of 355 nm and 460 nm, respectively. The DPP-IV inhibitory activity was calculated using the following formula:(1) DPP-IV Inhibition (%)=A− B/A×100% where A was the average fluorescence of 100% initial activity (blank) and B was the fluorescence of the sample.
The 50% inhibitory concentration (IC50) of DPP-IV enzyme activity was calculated using the drc package (https://cran.r-project.org/web/packages/drc/ accessed on 20 July 2024) in R 4.1.2.

[3] = food-derived peptides from Sorghum bicolor
[4] = food-derived peptides from sheep
[5] = food-derived peptides from silver carp proteins

T1 sequence (P27487 whole entry): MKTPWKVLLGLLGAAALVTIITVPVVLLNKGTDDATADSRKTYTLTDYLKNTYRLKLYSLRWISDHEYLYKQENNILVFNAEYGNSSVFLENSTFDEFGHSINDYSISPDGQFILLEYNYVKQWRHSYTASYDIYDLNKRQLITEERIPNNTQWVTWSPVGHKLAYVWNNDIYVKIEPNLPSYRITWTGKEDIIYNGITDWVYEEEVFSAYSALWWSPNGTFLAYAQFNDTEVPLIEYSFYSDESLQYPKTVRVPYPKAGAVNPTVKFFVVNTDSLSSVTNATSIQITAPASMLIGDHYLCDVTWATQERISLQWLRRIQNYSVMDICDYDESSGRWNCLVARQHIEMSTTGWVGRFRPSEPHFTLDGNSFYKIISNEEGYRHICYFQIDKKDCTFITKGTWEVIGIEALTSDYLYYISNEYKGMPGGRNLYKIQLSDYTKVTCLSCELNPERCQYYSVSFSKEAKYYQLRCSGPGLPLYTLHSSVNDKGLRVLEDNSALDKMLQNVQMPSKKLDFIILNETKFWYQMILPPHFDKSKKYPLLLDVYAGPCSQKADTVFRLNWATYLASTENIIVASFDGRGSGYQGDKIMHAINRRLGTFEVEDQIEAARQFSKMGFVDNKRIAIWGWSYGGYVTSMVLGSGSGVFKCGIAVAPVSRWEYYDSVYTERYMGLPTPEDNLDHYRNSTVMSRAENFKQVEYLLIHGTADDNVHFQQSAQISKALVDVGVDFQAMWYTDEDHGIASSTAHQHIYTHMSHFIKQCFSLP

Which IC50 (DPP-IV [1]; [3]) does the source give for “SLGESLLQEDVEAHK [food-derived peptide from Sorghum bicolor]” here?
The IC50 was 82.5 µM.

With “MQEHFTCCR [food-derived peptide from sheep]” as the substance, how does the IC50 (DPP-IV [1]; [4]) read?
The IC50 was 215 µM.

With LRGFGNPPT as the substance, how does the IC50 (DPP-IV [2]) read?
The IC50 was 1.56 µM.

Which IC50 (DPP-IV [1]; [5]) does the source give for “LPIIDI [food-derived peptide from silver carp proteins]” here?
The IC50 was 105 µM.

For “APGPAG [food-derived peptide from silver carp proteins]”, which IC50 (DPP-IV [1]; [5]) is on record?
Its IC50 is 229 µM.

For “RLYLHENK [food-derived peptide from sheep]”, which IC50 (DPP-IV [1]; [4]) is on record?
The IC50 was 166 µM.

With “LSICGEESFGTGSDHIR [food-derived peptide from Sorghum bicolor]” as the substance, how does the IC50 (DPP-IV [1]; [3]) read?
The IC50 was 73.5 µM.

With “QLRDIVDK [food-derived peptide from Sorghum bicolor]” as the substance, how does the IC50 (DPP-IV [1]; [3]) read?
The IC50 was 8.55 µM.
